Test results taken from PMC5422525.

Columns and labels:
[1] = target: Caulobacter crescentus ClpX (C. crescentus) (UniProt B8GX14)
[2] = target: Escherichia coli ClpX (E. coli) (UniProt P0A6H1)
Sequence of UniProt P0A6H1 (P0A6H1 whole entry): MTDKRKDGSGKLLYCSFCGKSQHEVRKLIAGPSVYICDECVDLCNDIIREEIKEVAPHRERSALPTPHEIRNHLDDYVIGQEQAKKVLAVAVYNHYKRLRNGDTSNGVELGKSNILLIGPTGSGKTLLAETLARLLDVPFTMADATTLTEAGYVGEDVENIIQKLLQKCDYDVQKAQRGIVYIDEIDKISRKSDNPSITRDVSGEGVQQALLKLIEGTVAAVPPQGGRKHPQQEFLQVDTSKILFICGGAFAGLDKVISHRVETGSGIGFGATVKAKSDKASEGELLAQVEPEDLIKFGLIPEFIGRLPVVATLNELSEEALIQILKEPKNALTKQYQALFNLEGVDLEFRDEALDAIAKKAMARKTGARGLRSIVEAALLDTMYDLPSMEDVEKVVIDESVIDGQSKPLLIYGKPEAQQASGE

Sequence of UniProt B8GX14 (B8GX14 whole entry): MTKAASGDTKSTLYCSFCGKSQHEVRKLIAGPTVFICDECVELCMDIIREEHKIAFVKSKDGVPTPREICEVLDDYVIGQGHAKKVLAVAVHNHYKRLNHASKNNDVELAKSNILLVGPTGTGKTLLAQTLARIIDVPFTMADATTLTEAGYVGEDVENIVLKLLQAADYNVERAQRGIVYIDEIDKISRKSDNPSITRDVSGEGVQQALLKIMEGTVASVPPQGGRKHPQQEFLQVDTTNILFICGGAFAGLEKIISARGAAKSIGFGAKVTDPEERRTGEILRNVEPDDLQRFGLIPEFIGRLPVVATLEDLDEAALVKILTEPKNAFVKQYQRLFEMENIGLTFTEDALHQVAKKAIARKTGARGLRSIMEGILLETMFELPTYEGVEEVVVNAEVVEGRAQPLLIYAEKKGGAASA

| K (activation): degradation of 1 uM GFP-ssrA by 50 nM ClpX6 with varying concentrations of ClpP14, initial rates fitted to a first-order binding equation [1] [nM] | K (activation): degradation of 1 uM GFP-ssrA by 50 nM ClpX6 with varying concentrations of ClpP14, initial rates fitted to a first-order binding equation [2] [nM] | Substance |
| --- | --- | --- |
| 9.1 | 12.1 | Caulobacter crescentus ClpP (from UniProt B8GX16 1-209) (enzyme) |
|  | 24.1 | Escherichia coli ClpP (from UniProt P0A6G7 15-207) (enzyme) |
